This experiment concerns the target opiate receptors of rat brain homogenate ([3H]-Naloxone binding sites, non-selective binding assay) (rat). In words: displacement of 1.0 nM [3H]-Naloxone from rat brain homogenate, filtration; compound at 10 nM.

For “CCI-H (20% HSA•MPA-AEA3-Dyn A 2-17-NH2) (from UniProt P02768 25-609)”, the % INHIBITION AT 10 nM was determined as 1.28%.

The values above are taken from EP1007561B1.
